The results in this text go back to publication PMC9352680, “A comprehensive thermodynamic model for RNA binding by the Saccharomyces cerevisiae Pumilio protein PUF4”.

T1: PUF4 RNA-binding domain (Saccharomyces cerevisiae, UniProt P25339 537-888)
T1 sequence: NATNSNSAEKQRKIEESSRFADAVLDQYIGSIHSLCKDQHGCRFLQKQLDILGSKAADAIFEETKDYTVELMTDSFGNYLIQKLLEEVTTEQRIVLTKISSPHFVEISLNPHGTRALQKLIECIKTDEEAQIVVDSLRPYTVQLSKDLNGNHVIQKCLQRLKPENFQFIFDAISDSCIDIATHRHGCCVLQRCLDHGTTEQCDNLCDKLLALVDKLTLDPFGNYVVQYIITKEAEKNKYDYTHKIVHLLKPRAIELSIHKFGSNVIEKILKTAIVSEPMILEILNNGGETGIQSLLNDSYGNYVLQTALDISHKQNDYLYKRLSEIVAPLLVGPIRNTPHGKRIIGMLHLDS

B1: Ic_S2_P3E.1_K3.1_C3.1_H3.1_A3.1_F3.1_[A8T]_T3.1 (ssRNA)
RNA: UUUGAUUAAUAUGAUAUCGUUCUUUCUUGUAUAUUUUCUUUCUCGAUAUCAUAUUAAUCUUU

This data set addresses T1, PUF4 RNA-binding domain. As to the kind of experiment: Mg; RNA-MaP; 20 mM Na-HEPES pH 7.4, 30 mM KOAc, 0.75 mM MgCl2, 0.1% Tween-20, 5% glycerol, 0.1 mg/mL BSA, 2 mM DTT; 25 C; 0.0125-409.6 nM protein. Particulars: tags: N-His6-TEV cleaved; C-SNAP kept, Cy3B-labelled; label: tethered on chip by stalled RNA polymerase.
For orientation: Kd means the constant that tells how readily two partners part at equilibrium. A high value points to a looser complex. The molecule UCUCUUCUUGUUAUAUAUAUCUCUU (ssRNA) [Ie_S1_P3E.2_K3.1_C3.2_H3.1_[+2T]_A3.1_F3.1_T3.2] had a Kd of 29.7 nM.

The molecule UCUCUUUGUAUGCUUAUCUCUU (ssRNA) [Ic_S1_P5E.1_K5.1_C5.1_H5.1_A5.1_[T6G]_[A7C]_F5.1_T5.1] had a dissociation constant Kd of 32 nM.

As for UCUCUUCUUUCUCGUAUAUAUAUCUCUU (ssRNA) [Ie_S1_P3E.2_K3.1_C3.2_H3.1_[+1TCTC]_A3.1_F3.1_T3.2], the Kd was 261 nM.

In turn, UCUCUUCUCUCUUUGUAUAUAUAUCUCUU (ssRNA) [Ie_S1_P3E.2_K3.1_C3.2_[+-2TCTCT]_H3.1_A3.1_F3.1_T3.2] showed a Kd of 4.28 nM.

UCUCUUCUUGUUUUAUAUAUAUCUCUU (ssRNA) [Ie_S1_P3E.2_K3.1_C3.2_H3.1_[+2TTT]_A3.1_F3.1_T3.2] registered a Kd of 27.9 nM.

UCUCUUCUUGCCCUUAUAUAUAUCUCUU (ssRNA) [Ie_S1_P3E.2_K3.1_C3.2_H3.1_[+2CCCT]_A3.1_F3.1_T3.2] gave a Kd of 1190 nM.

UCUCUUCUUCCGUAUAUAUAUCUCUU (ssRNA) [Ie_S1_P3E.2_K3.1_C3.2_H3.1_[+1CC]_A3.1_F3.1_T3.2]: binding was put at a Kd of 1270 nM.

UCUCUUCUUGCUCUUAUAUAUAUCUCUU (ssRNA) [Ie_S1_P3E.2_K3.1_C3.2_H3.1_[+2CTCT]_A3.1_F3.1_T3.2] showed a Kd of 824 nM.

UCUCUUCUUCUCUUGUAUAUAUAUCUCUU (ssRNA) [Ie_S1_P3E.2_K3.1_C3.2_[+-1TCTCT]_H3.1_A3.1_F3.1_T3.2] returned a Kd of 5.94 nM.

UCUCUUCUUCCCUGUAUAUAUAUCUCUU (ssRNA) [Ie_S1_P3E.2_K3.1_C3.2_H3.1_[+1CCCT]_A3.1_F3.1_T3.2] yielded a dissociation constant Kd of 4.02 nM.

For the molecule UCUCUUCUUGUCUCUAUAUAUAUCUCUU (ssRNA) [Ie_S1_P3E.2_K3.1_C3.2_H3.1_[+2TCTC]_A3.1_F3.1_T3.2], binding was put at a Kd of 456 nM.

As for UCUCUUCUUUCUCUGUAUAUAUAUCUCUU (ssRNA) [Ie_S1_P3E.2_K3.1_C3.2_H3.1_[+1TCTCT]_A3.1_F3.1_T3.2], the dissociation constant (Kd) worked out at 4.87 nM.

In turn, UCUCUUCUUGUCCUAUAUAUAUCUCUU (ssRNA) [Ie_S1_P3E.2_K3.1_C3.2_H3.1_[+2TCC]_A3.1_F3.1_T3.2] had a Kd of 62.9 nM.

In turn, UCUCUUCUUGUCAUAUAUAUCUCUU (ssRNA) [Ie_S1_P3E.2_K3.1_C3.2_H3.1_[+3C]_A3.1_F3.1_T3.2] displayed a Kd of 67 nM.

For the molecule UCUCUUCUUGUUUCCAUAUAUAUCUCUU (ssRNA) [Ie_S1_P3E.2_K3.1_C3.2_H3.1_[+3TTCC]_A3.1_F3.1_T3.2], the affinity, expressed as Kd, was 69.3 nM.

The molecule UCUCUUCUUGUCCUCAUAUAUAUCUCUU (ssRNA) [Ie_S1_P3E.2_K3.1_C3.2_H3.1_[+3CCTC]_A3.1_F3.1_T3.2] came in with a dissociation constant Kd of 798 nM.

UCUCUUCUUGUUCAUAUAUAUCUCUU (ssRNA) [Ie_S1_P3E.2_K3.1_C3.2_H3.1_[+3TC]_A3.1_F3.1_T3.2] registered a Kd of 98.7 nM.

With UCUCUUCUUGUCUUAUAUAUAUCUCUU (ssRNA) [Ie_S1_P3E.2_K3.1_C3.2_H3.1_[+3CTT]_A3.1_F3.1_T3.2], the Kd amounted to 95.5 nM.

UCUCUUCUUCUCUGUAUAUAUAUCUCUU (ssRNA) [Ie_S1_P3E.2_K3.1_C3.2_H3.1_[+1CTCT]_A3.1_F3.1_T3.2] yielded a dissociation constant Kd of 4.16 nM.

UCUCUUCUCCUGUAUAUAUAUCUCUU (ssRNA) [Ie_S1_P3E.2_K3.1_C3.2_[+-1CC]_H3.1_A3.1_F3.1_T3.2]: the Kd came out at 4.99 nM.

On to UCUCUUCUUUUCCUGUAUAUAUAUCUCUU (ssRNA) [Ie_S1_P3E.2_K3.1_C3.2_H3.1_[+1TTCCT]_A3.1_F3.1_T3.2], for which the Kd came out at 5.37 nM.

With UCUCUUCCCCUUUGUAUAUAUAUCUCUU (ssRNA) [Ie_S1_P3E.2_K3.1_C3.2_[+-2CCCT]_H3.1_A3.1_F3.1_T3.2], binding was put at a Kd of 3.73 nM.

UCUCUUUGUAUGGUUAUCUCUU (ssRNA) [Ib_S1_P5E.1_K5.1_C5.1_H5.1_A5.1_[T6G]_[A7G]_F5.1_T5.1] yielded a Kd of 37.1 nM.

UCUCUUCUUGUUCUAUAUAUAUCUCUU (ssRNA) [Ie_S1_P3E.2_K3.1_C3.2_H3.1_[+3TCT]_A3.1_F3.1_T3.2] yielded a Kd of 53.2 nM.

Take UCUCUUCUUUCCUUGUAUAUAUAUCUCUU (ssRNA) [Ie_S1_P3E.2_K3.1_C3.2_[+-1TTCCT]_H3.1_A3.1_F3.1_T3.2]: the dissociation constant (Kd) came out at 4.2 nM.

For UCUCUUUGUAAUGUUAUCUCUU (ssRNA) [Ib_S1_P5E.1_K5.1_C5.1_H5.1_A5.1_[T5A]_[A7G]_F5.1_T5.1], the Kd turned out to be 12.7 nM.

UCUCUUCUCUCUGUAUAUAUAUCUCUU (ssRNA) [Ie_S1_P3E.2_K3.1_C3.2_[+-1CTC]_H3.1_A3.1_F3.1_T3.2] gave a Kd of 4.2 nM.

As for UCUCUUCCUCUCUUGUAUAUAUAUCUCUU (ssRNA) [Ie_S1_P3E.2_K3.1_C3.2_[+-2CTCTC]_H3.1_A3.1_F3.1_T3.2], the dissociation constant (Kd) is 7.46 nM.

Take UCUCUUCUUCUCGUAUAUAUAUCUCUU (ssRNA) [Ie_S1_P3E.2_K3.1_C3.2_H3.1_[+1CTC]_A3.1_F3.1_T3.2]: binding was characterised by a dissociation constant (Kd) of 449 nM.

With UCUCUUCUCCCUUUGUAUAUAUAUCUCUU (ssRNA) [Ie_S1_P3E.2_K3.1_C3.2_[+-1CCCTT]_H3.1_A3.1_F3.1_T3.2], the equilibrium dissociation constant (Kd) amounted to 6.24 nM.

As to UCUCUUCUUCCUCUGUAUAUAUAUCUCUU (ssRNA) [Ie_S1_P3E.2_K3.1_C3.2_H3.1_[+1CCTCT]_A3.1_F3.1_T3.2], the affinity, expressed as Kd, was 5.08 nM.

Molecule UCUCUUCUUUCCGUAUAUAUAUCUCUU (ssRNA) [Ie_S1_P3E.2_K3.1_C3.2_H3.1_[+1TCC]_A3.1_F3.1_T3.2] displayed a Kd of 534 nM.

As for UCUCUUCUUGUUCCAUAUAUAUCUCUU (ssRNA) [Ie_S1_P3E.2_K3.1_C3.2_H3.1_[+3TCC]_A3.1_F3.1_T3.2], the equilibrium dissociation constant (Kd) was found to be 26.1 nM.

For UCUCUUCUCCUCUUGUAUAUAUAUCUCUU (ssRNA) [Ie_S1_P3E.2_K3.1_C3.2_[+-1CCTCT]_H3.1_A3.1_F3.1_T3.2], the affinity, expressed as Kd, was 3.91 nM.

Consider UCUCUUCUUGUUCCUAUAUAUAUCUCUU (ssRNA) [Ie_S1_P3E.2_K3.1_C3.2_H3.1_[+2TTCC]_A3.1_F3.1_T3.2], for which binding was put at a Kd of 104 nM.

Turning to UCUCUUCUUGUCCCAUAUAUAUCUCUU (ssRNA) [Ie_S1_P3E.2_K3.1_C3.2_H3.1_[+3CCC]_A3.1_F3.1_T3.2], binding was characterised by a dissociation constant (Kd) of 64.7 nM.

UCUCUUCUUGCCUAUAUAUAUCUCUU (ssRNA) [Ie_S1_P3E.2_K3.1_C3.2_H3.1_[+2CC]_A3.1_F3.1_T3.2] returned a Kd of 1170 nM.

In the case of UCUCUUCUUCCUGUAUAUAUAUCUCUU (ssRNA) [Ie_S1_P3E.2_K3.1_C3.2_H3.1_[+1CCT]_A3.1_F3.1_T3.2], the dissociation constant (Kd) stood at 5.41 nM.

The molecule UCUCUUCUUCCUCGUAUAUAUAUCUCUU (ssRNA) [Ie_S1_P3E.2_K3.1_C3.2_H3.1_[+1CCTC]_A3.1_F3.1_T3.2] yielded a dissociation constant (Kd) of 475 nM.

Turning to B1, the equilibrium dissociation constant (Kd) was 1.67 nM.

Turning to UCUCUUCUUCCUUGUAUAUAUAUCUCUU (ssRNA) [Ie_S1_P3E.2_K3.1_C3.2_[+-2TTCC]_H3.1_A3.1_F3.1_T3.2], the dissociation constant (Kd) was determined as 6.09 nM.

For the molecule UCUCUUCUCCCUUGUAUAUAUAUCUCUU (ssRNA) [Ie_S1_P3E.2_K3.1_C3.2_[+-1CCCT]_H3.1_A3.1_F3.1_T3.2], the equilibrium dissociation constant (Kd) amounted to 2.61 nM.

As for UCUCUUCUUGCCUCUUAUAUAUAUCUCUU (ssRNA) [Ie_S1_P3E.2_K3.1_C3.2_H3.1_[+2CCTCT]_A3.1_F3.1_T3.2], the affinity, expressed as Kd, was 1680 nM.

As for UCUCUUCUUGCUCUCUAUAUAUAUCUCUU (ssRNA) [Ie_S1_P3E.2_K3.1_C3.2_H3.1_[+2CTCTC]_A3.1_F3.1_T3.2], binding was put at a Kd of 1140 nM.

UCUCUUCUUCUGUAUAUAUAUCUCUU (ssRNA) [Ie_S1_P3E.2_K3.1_C3.2_H3.1_[+1CT]_A3.1_F3.1_T3.2] came in with a dissociation constant Kd of 4.75 nM.

For UCUCUUCCCCUUUUGUAUAUAUAUCUCUU (ssRNA) [Ie_S1_P3E.2_K3.1_C3.2_[+-2CCCTT]_H3.1_A3.1_F3.1_T3.2], the Kd was 5.86 nM.

The molecule UCUCUUUGUAAUCUUAUCUCUU (ssRNA) [Ib_S1_P5E.1_K5.1_C5.1_H5.1_A5.1_[T5A]_[A7C]_F5.1_T5.1] showed a Kd of 12.1 nM.

Regarding UCUCUUCUUGUCCCUAUAUAUAUCUCUU (ssRNA) [Ie_S1_P3E.2_K3.1_C3.2_H3.1_[+3CCCT]_A3.1_F3.1_T3.2], the Kd came to 454 nM.

Turning to UCUCUUCUUCUCUCGUAUAUAUAUCUCUU (ssRNA) [Ie_S1_P3E.2_K3.1_C3.2_H3.1_[+1CTCTC]_A3.1_F3.1_T3.2], the dissociation constant Kd was found to be 512 nM.

As to UCUCUUUGUAAUUUUAUCUCUU (ssRNA) [Ib_S1_P5E.1_K5.1_C5.1_H5.1_A5.1_[T5A]_[A7T]_F5.1_T5.1], binding was characterised by a dissociation constant (Kd) of 5.31 nM.

The molecule UCUCUUCUUUCUGUAUAUAUAUCUCUU (ssRNA) [Ie_S1_P3E.2_K3.1_C3.2_H3.1_[+1TCT]_A3.1_F3.1_T3.2] returned a dissociation constant Kd of 3.95 nM.

As to UCUCUUCUUGUCUAUAUAUAUCUCUU (ssRNA) [Ie_S1_P3E.2_K3.1_C3.2_H3.1_[+2TC]_A3.1_F3.1_T3.2], the equilibrium dissociation constant (Kd) amounted to 844 nM.

Turning to UCUCUUCUUGCCUUAUAUAUAUCUCUU (ssRNA) [Ie_S1_P3E.2_K3.1_C3.2_H3.1_[+2CCT]_A3.1_F3.1_T3.2], the dissociation constant Kd was 1510 nM.

In turn, UCUCUUCUUGUCCAUAUAUAUCUCUU (ssRNA) [Ie_S1_P3E.2_K3.1_C3.2_H3.1_[+3CC]_A3.1_F3.1_T3.2] gave an equilibrium dissociation constant (Kd) of 822 nM.

Regarding UCUCUUCUCUCUCUGUAUAUAUAUCUCUU (ssRNA) [Ie_S1_P3E.2_K3.1_C3.2_[+-1CTCTC]_H3.1_A3.1_F3.1_T3.2], the Kd was 3.89 nM.

For UCUCUUCUUCCUUUGUAUAUAUAUCUCUU (ssRNA) [Ie_S1_P3E.2_K3.1_C3.2_[+-2TTCCT]_H3.1_A3.1_F3.1_T3.2], the dissociation constant (Kd) turned out to be 6.01 nM.
